In patent US20030162228A1 (Chugai, published 2003):
Read-outs that look alike come from different tables or passages of the source. Where no end group is shown, it is not given here.

Key:
[1] = target: T1, recombinant human TAK1-6×His polypeptide (human, UniProt O43318 1-606); assay: competition ELISA on plate-immobilised TAK1-6×His; the blocked ligand is MBP-TAB1C-FLAG at a fixed amount
T1 construct: also called human TAK1-6xHis; recombinant TAK1 polypeptide
T1 sequence: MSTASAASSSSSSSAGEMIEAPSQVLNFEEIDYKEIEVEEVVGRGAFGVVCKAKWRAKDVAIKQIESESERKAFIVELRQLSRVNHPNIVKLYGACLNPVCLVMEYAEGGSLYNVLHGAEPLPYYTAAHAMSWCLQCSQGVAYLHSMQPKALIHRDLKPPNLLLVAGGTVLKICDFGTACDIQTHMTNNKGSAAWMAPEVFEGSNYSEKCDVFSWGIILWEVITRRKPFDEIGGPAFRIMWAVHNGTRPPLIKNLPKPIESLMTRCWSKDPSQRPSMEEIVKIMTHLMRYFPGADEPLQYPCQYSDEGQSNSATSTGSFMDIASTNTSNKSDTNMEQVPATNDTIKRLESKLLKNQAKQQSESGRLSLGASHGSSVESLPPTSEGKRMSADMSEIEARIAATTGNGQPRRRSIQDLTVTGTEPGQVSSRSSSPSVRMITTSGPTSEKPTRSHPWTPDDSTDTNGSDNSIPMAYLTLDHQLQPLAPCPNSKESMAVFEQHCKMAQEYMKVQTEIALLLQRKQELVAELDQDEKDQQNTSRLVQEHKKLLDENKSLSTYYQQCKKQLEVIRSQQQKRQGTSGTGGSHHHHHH
Source text: In a similar manner to that in the above 5-1 (2), the recombinant human TAK1-6×His polypeptide was immobilized and was blocked.

[2] = target: T2, TAK1 expressed from yeast 2-hybrid expression vector pBTMHu11F (Homo sapiens (Human), UniProt O43318 1-606); assay: cell-based or functional assay
T2 sequence: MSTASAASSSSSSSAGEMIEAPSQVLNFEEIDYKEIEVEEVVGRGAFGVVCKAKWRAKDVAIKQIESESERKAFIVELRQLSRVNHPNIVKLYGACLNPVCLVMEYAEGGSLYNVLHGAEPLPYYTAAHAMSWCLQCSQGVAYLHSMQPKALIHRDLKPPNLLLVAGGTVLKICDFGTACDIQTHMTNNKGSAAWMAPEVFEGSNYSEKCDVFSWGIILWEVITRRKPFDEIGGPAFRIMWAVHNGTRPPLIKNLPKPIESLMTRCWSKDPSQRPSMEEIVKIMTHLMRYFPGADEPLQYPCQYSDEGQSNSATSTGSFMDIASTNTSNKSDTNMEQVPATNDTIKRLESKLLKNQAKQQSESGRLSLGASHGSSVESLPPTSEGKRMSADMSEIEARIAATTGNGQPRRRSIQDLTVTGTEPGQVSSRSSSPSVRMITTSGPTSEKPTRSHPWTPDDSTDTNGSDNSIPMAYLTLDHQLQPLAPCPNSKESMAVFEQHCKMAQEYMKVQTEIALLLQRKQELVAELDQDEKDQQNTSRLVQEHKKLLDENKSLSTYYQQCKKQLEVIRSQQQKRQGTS

[3] = target: TAB1 polypeptide of mink pulmonary epithelial cell line Mv1Lu (endogenous) (mink); assay: cell-based or functional assay
[4] = target: T3, TAB1 polypeptide of human fibroblast-derived HT-1080 cells (endogenous) (human, UniProt Q15750 1-504, limits assumed); assay: cell-based or functional assay
T3 sequence (looked up): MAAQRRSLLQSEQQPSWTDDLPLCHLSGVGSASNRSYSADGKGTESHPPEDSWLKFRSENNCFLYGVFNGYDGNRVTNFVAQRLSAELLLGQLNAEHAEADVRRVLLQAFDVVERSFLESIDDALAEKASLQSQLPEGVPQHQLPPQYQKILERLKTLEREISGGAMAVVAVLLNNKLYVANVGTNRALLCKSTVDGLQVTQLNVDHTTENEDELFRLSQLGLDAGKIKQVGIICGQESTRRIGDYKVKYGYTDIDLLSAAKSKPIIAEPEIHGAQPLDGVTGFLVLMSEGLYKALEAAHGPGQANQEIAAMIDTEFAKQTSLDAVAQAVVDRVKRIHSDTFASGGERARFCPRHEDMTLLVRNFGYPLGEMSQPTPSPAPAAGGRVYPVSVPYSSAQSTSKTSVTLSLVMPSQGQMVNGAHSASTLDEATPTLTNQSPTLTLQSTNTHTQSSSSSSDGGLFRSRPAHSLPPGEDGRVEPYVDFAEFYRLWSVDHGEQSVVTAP

[5] = target: T4, TAB1 polypeptide of mouse kidney mesangial cell line SV40MES13 (endogenous) (mouse, UniProt Q8CF89 1-502, limits assumed); assay: cell-based or functional assay
T4 sequence (looked up): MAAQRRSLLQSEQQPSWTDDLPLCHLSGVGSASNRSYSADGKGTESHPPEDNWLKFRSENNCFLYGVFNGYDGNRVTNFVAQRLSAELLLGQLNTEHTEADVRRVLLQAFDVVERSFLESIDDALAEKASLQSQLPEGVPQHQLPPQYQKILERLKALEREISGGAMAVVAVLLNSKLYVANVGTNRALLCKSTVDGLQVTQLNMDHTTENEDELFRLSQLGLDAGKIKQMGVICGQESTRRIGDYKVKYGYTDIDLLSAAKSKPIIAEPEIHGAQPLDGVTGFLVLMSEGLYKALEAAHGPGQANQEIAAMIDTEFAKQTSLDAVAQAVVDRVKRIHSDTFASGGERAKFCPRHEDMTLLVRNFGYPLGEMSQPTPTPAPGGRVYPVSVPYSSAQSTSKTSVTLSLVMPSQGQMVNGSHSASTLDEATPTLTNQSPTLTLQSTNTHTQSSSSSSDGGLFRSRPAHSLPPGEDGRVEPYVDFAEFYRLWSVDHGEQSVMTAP

[6] = target: T2, TAK1 expressed from yeast 2-hybrid …; assay: cell-based or functional assay; remark: listed apart in the source
[7] = target: T2, TAK1 expressed from yeast 2-hybrid …; assay: cell-based or functional assay; remark: listed apart in the source

B1: recombinant human TAB1-FLAG polypeptide (other)
chain: MAAQRRSLLQSEQQPSWTDDLPLCHLSGVGSASNRSYSADGKGTESHPPEDSWLKFRSENNCFLYGVFNGYDGNRVTNFVAQRLSAELLLGQLNAEHAEADVRRVLLQAFDVVERSFLESIDDALAEKASLQSQLPEGVPQHQLPPQYQKILERLKTLEREISGGAMAVVAVLLNNKLYVANVGTNRALLCKSTVDGLQVTQLNVDHTTENEDELFRLSQLGLDAGKIKQVGIICGQESTRRIGDYKVKYGYTDIDLLSAAKSKPIIAEPEIHGAQPLDGVTGFLVLMSEGLYKALEAAHGPGQANQEIAAMIDTEFAKQTSLDAVAQAVVDRVKRIHSDTFASGGERARFCPRHEDMTLLVRNFGYPLGEMSQPTPSPAPAAGGRVYPVSVPYSSAQSTSKTSVTLSLVMPSQGQMVNGAHSASTLDEATPTLTNQSPTLTLQSTNTHTQSSSSSSDGGLFRSRPAHSLPPGEDGRVEPYVDFAEFYRLWSVDHGEQSVVTAPGTGGSDYKDDDDK
notes: Made in Sf9 cells with baculovirus and purified on anti-FLAG M2 gel
IC50 (read off the curve) [1]: ~1 µg/well

B2: TAB1C25, fusion with the GAL4 transcription activated domain (pGAD-TAB1C25) (other, not shown: large carriers)
chain: PYVDFAEFYRLWSVDHGEQSVVTAP
modifications: also: fusion with GAL4 transcription activation domain
β-galactosidase activity of yeast L40 (yeast 2-hybrid), ratio based on TAB1C68 [2]: 0.28 ratio to TAB1C68

B3: TAK1-DN (expressed from pTAK1DN) (other)
chain: MELRQLSRVNHPNIVKLYGACLNPVCLVMEYAEGGSLYNVLHGAEPLPYYTAAHAMSWCLQCSQGVAYLHSMQPKALIHRDLKPPNLLLVAGGTVLKICDFGTACDIQTHMTNNKGSAAWMAPEVFEGSNYSEKCDVFSWGIILWEVITRRKPFDEIGGPAFRIMWAVHNGTRPPLIKNLPKPIESLMTRCWSKDPSQRPSMEEIVKIMTHLMRYFPGADEPLQYPCQ
fold increase of PAI-1 in the culture supernatant on TGF-β1 addition, Mv/DN2 cells (control cells about 16-fold) [3]: ~4.3 fold
fold increase of fibronectin in the culture supernatant on TGF-β addition, HT/DN2 cells (control HT/NEO about 6.1 fold) [4]: ~2.6 fold
fold increase of fibronectin in the culture supernatant on TGF-β addition, HT/DN14 cells (control HT/NEO about 6.1 fold) [4]: ~3 fold
fold increase of fibronectin in the extracellular matrix extract on TGF-β addition, HT/DN2 cells (control HT/NEO about 11.4 fold) [4]: ~3.5 fold
fold increase of fibronectin in the extracellular matrix extract on TGF-β addition, HT/DN14 cells (control HT/NEO about 11.4 fold) [4]: ~3.6 fold
fold increase of fibronectin in the culture supernatant on TGF-β addition, MES/DN3 cells (control MES/NEO about 3.3 fold) [5]: ~2.4 fold
fold increase of fibronectin in the culture supernatant on TGF-β addition, MES/DN6 cells (control MES/NEO about 3.3 fold) [5]: ~2.3 fold
fold increase of fibronectin in the extracellular matrix extract on TGF-β addition, MES/DN3 cells (control MES/NEO about 3.8 fold) [5]: ~2.6 fold
fold increase of fibronectin in the extracellular matrix extract on TGF-β addition, MES/DN6 cells (control MES/NEO about 3.8 fold) [5]: ~2.1 fold
fold increase of type I collagen in the culture supernatant on TGF-β addition, MES/DN3 cells (control MES/NEO about 3.6 fold) [5]: ~2 fold
fold increase of type I collagen in the culture supernatant on TGF-β addition, MES/DN6 cells (control MES/NEO about 3.6 fold) [5]: ~2 fold
fold increase of type IV collagen in the culture supernatant on TGF-β addition, MES/DN3 cells (control MES/NEO about 2.0 fold) [5]: ~1.5 fold
fold increase of type IV collagen in the culture supernatant on TGF-β addition, MES/DN6 cells (control MES/NEO about 2.0 fold) [5]: ~1.4 fold

B4: TAB1C68, fusion with the GAL4 transcription activated domain (pGAD-TAB1) (other, not shown: large carriers)
chain: QSPTLTLQSTNTHTQSSSSSSDGGLFRSRPAHSLPPGEDGRVEPYVDFAEFYRLWSVDHGEQSVVTAP
ratio of the β-galactosidase activity to that of TAB1C68 (yeast 2-hybrid) [6]: 1
ratio of the β-galactosidase activity to that of TAB1C68 (yeast 2-hybrid) [7]: 1

B5: TAB1C45, fusion with the GAL4 transcription activated domain (pGAD-TAB1C45) (other, not shown: large carriers)
chain: GLFRSRPAHSLPPGEDGRVEPYVDFAEFYRLWSVDHGEQSVVTAP
modifications: also: fusion with GAL4 transcription activation domain
ratio of the β-galactosidase activity to that of TAB1C68 (yeast 2-hybrid) [6]: 1.31
ratio of the β-galactosidase activity to that of TAB1C68 (yeast 2-hybrid) [7]: 1.19
